The values that follow come from the nanobody polyreactivity screen of Harvey et al. (2022).

This data set is described as follows: yeast display, Sf9 membrane polyspecificity reagent, FACS + sequencing; frameworks hold sequencing errors. The essentials:
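In a synthetic yeast display library (Saccharomyces cerevisiae BJ5465), nanobody expression was induced with galactose for 36–48 hours. FACS gates were set low and high (top ~1%) using anti-HA fluorescence for expression and streptavidin fluorescence for binding of the Sf9 membrane reagent. Each polyreactivity label is drawn from the gate of origin.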
“QVQLVESGGGLVQAGGSLRLSCAASGIIFDVYAMGWYRPAPGKERELVAAISYGGGTTYYADSVKGRFTISRDNAKNTVYLQMNSLKPEDTAVYYCAADSYRSIGDDYWGQGTQVTVSS”: the “polyreactivity (PSR sort gate)” value is listed as “high polyreactivity”.

With “QVQLVESGGGLVQAGGSLRLSCAASGIIFDVYAMGWYRQAPGKEREFVAAITTGGSTNYADSVKGRFTISRDNAKNSVYLQMNSLTPEDTAVYYCNADWDVGYGYWGQGTQVTVSS”, the “polyreactivity (PSR sort gate)” value was “low polyreactivity”.

Consider “QVQLVESGGGLVQAGGSLRLSCAASGIIFDVYAMGWYRQAPGKERELVAAISKRGGRTYYADSVKGRFTISRDNAKNTVYLQMNSLKPEDTAVYYCAADGQYKHFDYWGQGTQVTVSS”, for which the “polyreactivity (PSR sort gate)” value is “high polyreactivity”.

For “QVQLVESGGGLVQAGGSLRLSCAASGIIFDYYAMGWYRQAPGKERELVAGISQRGGSTYYADSVKGRFTISRDNAKITVYLQMNSLKPEDTAVYYWAAYTRSCEGHRGGYWGQGTQVTVSS”, the “polyreactivity (PSR sort gate)” value was “high polyreactivity”.

On to “QVQLVESGGGLVQAGGSLRLSCAASGIIFDYYAMGWYRQAPGKVREFVATITSGGSTTYADSVKGRFTISRDNAKNTVYIEMNSLKPEDTAVYYCAARTYWFPDIYPGLGRDYWGQGTQVTVSS”, for which the “polyreactivity (PSR sort gate)” value is given as “low polyreactivity”.

As for “QVQLVESGGGLVQAGGSLRLSCAASGIIFEGNAMGWYRQAPGKERELVAAISTSTGRTYYADSVKGRFTISRDNAKNTVYLQMNSLKPEDTAVYYCAAYIRTTRFDYWGQGTQVTVSS”, the “polyreactivity (PSR sort gate)” value is recorded as “high polyreactivity”.

As to “QVQLVESGGGLVQAGGSLRLSCAASGIIFEGNVMGWYRHAPAKERELVAAITSDTSTNYADSVKGRFTISRDNAKNTVYLQMNSLKPVDTAVYYFNAVICTDYYYSGTAEFYYWGQGTQVTVSS”, the “polyreactivity (PSR sort gate)” value was “low polyreactivity”.

On to “QVQLVESGGGLVQAGGSLRLSCAASGIIFERYAMGWYRQAPGKERELVAAISKGGGSRTYYADSVQGRFTISRDTAKNTVYLQMNSLKPEDTAVYYCNADIWYGDMDYWGQGTQVTVSS”, for which the “polyreactivity (PSR sort gate)” value is reported as “high polyreactivity”.

For “QVQLVESGGGLVQAGGSLRLSCAASGIIFEYYTIGWYRQATGKERELVASITYDGDSTYYADSVKGRFTISRDNAKNTVYLQMNSLKPEDTAVYYCAADYYSVYSSFGHYYWGQGTQVTVSS”, the “polyreactivity (PSR sort gate)” value was “low polyreactivity”.

For the sequence “QVQLVESGGGLVQAGGSLRLSCAASGIIFFIYAMGWYRQAPGKERELVARISIGGSTYYADSVKGRFTISRDNAKNTVYLQMNSLKPEDTAVYYCAARCGGLRATYHYWGQGTQVTVSS”, the “polyreactivity (PSR sort gate)” value was “low polyreactivity”.

For “QVQLVESGGGLVQAGGSLRLSCAASGIIFFKYAMGWYRQAPGKERELVARISWSGSTYADSVKGRFTISRDNAKNTVYLQMNSLKPEDTAVYYCAADSFTITADSDDYWGQGTQVTVSS”, the “polyreactivity (PSR sort gate)” value is reported as “low polyreactivity”.

As to “QVQLVESGGGLVQAGGSLRLSCAASGIIFFPYAMVWYRQAPGKEREFVAAITSRGGSTYYADSVKGRFTISRDNAKNTVYLQMNSLNPEDTAVYYFAADGWLWSFTGDGWWFDYWGQGTQVTVSS”, the “polyreactivity (PSR sort gate)” value is given as “low polyreactivity”.

As for “QVQLVESGGGLVQAGGSLRLSCAASGIIFGDNAMGWYRQAPGKERELVAAIDSGGSTYYADSVKGRFTISRDNAKNTVYLQMNSLKPEDTAVYYCNAVTAFGYSYGGWDYDQYNYWGQGTQVTVSS”, the “polyreactivity (PSR sort gate)” value is “low polyreactivity”.

Regarding “QVQLVESGGGLVQAGGSLRLSCAASGIIFGDNAMGWYRQAPGKERELVAAISSGGITYYADSVKGRFTISRDNAKNTVYLQMNSLKPEDTAVYYCAAGYYDFWYDYWGQGTQVTVSS”, the “polyreactivity (PSR sort gate)” value was “low polyreactivity”.

“QVQLVESGGGLVQAGGSLRLSCAASGIIFGDNAMGWYRQATGKERELVAAIDYGDGSTYYADSVKGRFTISRDNENNTVYLQMNRLKPEDTAVYYCNADDGGPGVVLPTKEYDYWGQGTQVTVSS”: the “polyreactivity (PSR sort gate)” value is reported as “low polyreactivity”.

As to “QVQLVESGGGLVQAGGSLRLSCAASGIIFGENAMGWYRQAPGKERELVAAINSVGSTYYADSVKGRFTISRDNAKNTVYLQMNSLKPEDTAVYYCAAESWFLRWYRYDYWGQGTQVTVSS”, the “polyreactivity (PSR sort gate)” value was “low polyreactivity”.

With “QVQLVESGGGLVQAGGSLRLSCAASGIIFGFNAMRWYRQAPGKEREFVADITYSGGSTYYADSVKGRFTISRDNAKNTVYLHMNSLKPEDTAVYYCAADEVSFWGYIYDYWGQGTQVTVSS”, the “polyreactivity (PSR sort gate)” value was “high polyreactivity”.

Turning to “QVQLVESGGGLVQAGGSLRLSCAASGIIFGFYAMGWYRQAPGKERELVAAITNDGGITNYADSVKGRFTISRDNAMNTVYLQMNSLKPEDTAVYYCAKDQWPWVRDSLYTLRYDYWGQGTQVTVSS”, the “polyreactivity (PSR sort gate)” value was “low polyreactivity”.

Turning to “QVQLVESGGGLVQAGGSLRLSCAASGIIFGGYDMGWYRQAPGKERELVAAISWSGGSTYYADSVKGRFTISRDNAKNTVYLQMNSLKPEDTAVYYCNAVGRRNVDSSLNDYWGQGTQVTVSS”, the “polyreactivity (PSR sort gate)” value is recorded as “low polyreactivity”.

Regarding “QVQLVESGGGLVQAGGSLRLSCAASGIIFGHYAMGWYRQAPGKERELVARITYSGTRTYYADSVKGRFTISRDNAKNTVYLQMNSLKPEDTAVYYCAAGYAYPRWVTAGNNWGQGTQVTVSS”, the “polyreactivity (PSR sort gate)” value is recorded as “high polyreactivity”.

For the sequence “QVQLVESGGGLVQAGGSLRLSCAASGIIFGKYAMGWYRPAPGKDRELVAAINYSGSTYYADSVKGRFTISRDNAKNTVYLQMNSLKPEDTAVYYCAARNRTFFQPTYYYWGQGTQVTVSS”, the “polyreactivity (PSR sort gate)” value is listed as “high polyreactivity”.

“QVQLVESGGGLVQAGGSLRLSCAASGIIFGPYVMGWYRQAPGKERELVATISRTGDTYYADSVKGRFTISRDNAKNTVYLQMNSLKPEDTAVYYCAVEWSAHKYYYWGQGTQVTVSS”: the “polyreactivity (PSR sort gate)” value is “low polyreactivity”.

Consider “QVQLVESGGGLVQAGGSLRLSCAASGIIFGQNAMGWYRQAPGKERELVAAITISGGSTYYADSVKGRFTISRDNAKNTVYLQMNSLKPEDTAVYYCAARRVTWKDIARGYRYGYWGQGTQVTVSS”, for which the “polyreactivity (PSR sort gate)” value is given as “low polyreactivity”.

“QVQLVESGGGLVQAGGSLRLSCAASGIIFGRYAMGWYRQAPGKERELVATISRSGGTTYYADSVKGRFTISRDNAKNTVYLQMNSLKPEDTAVYYCAARWTSRYDYWGQGTQVTVSS”: the “polyreactivity (PSR sort gate)” value is “high polyreactivity”.

Turning to “QVQLVESGGGLVQAGGSLRLSCAASGIIFGSNAMGWYRQAPGKERELVAAITSGGNTYYADSVKGRFTISRDNAKNTVYLQMNSLKPEDTAVYYCAARRPRRYGYWGQGTQVTVSS”, the “polyreactivity (PSR sort gate)” value was “high polyreactivity”.

Take “QVQLVESGGGLVQAGGSLRLSCAASGIIFGSNAMGWYRQSPGKERELVAAISRNGGRTYYADSVKGRFTISRDNAKNTVYLQMNSLKPEDTAVYYCATRWPHYGGYYYWGQGTQVTVSS”: the “polyreactivity (PSR sort gate)” value is recorded as “high polyreactivity”.

As for “QVQLVESGGGLVQAGGSLRLSCAASGIIFGTYDMGWNRQAPGKERELVAANTSGTSTNYADSVKGRFTISRDNAMNTVYLQMNSLKPEDTAVYYCAADVYLYYPYFGHRRYNYWGQGTQVTVSS”, the “polyreactivity (PSR sort gate)” value is reported as “high polyreactivity”.

Turning to “QVQLVESGGGLVQAGGSLRLSCAASGIIFGVYAMGWYRQAPGKERELVAAIDGNGSSTYYADSVKGRFTISRDNAKNSVYLQMNSLKPEDTAVYYCNKDVARYPYGKFDYWGQGTQVTVSS”, the “polyreactivity (PSR sort gate)” value was “low polyreactivity”.

For “QVQLVESGGGLVQAGGSLRLSCAASGIIFGVYAMGWYRQAPGKERELVAAISWTGGSTFYADSVKGRFTISRDNAKITVYLQMNILKPEDTAVYYCAVDYWSGITWVEYWGQGTQVTVSS”, the “polyreactivity (PSR sort gate)” value is on record as “high polyreactivity”.

As for “QVQLVESGGGLVQAGGSLRLSCAASGIIFGWYAMGWYRQAPGKERELVAAISSGGRTNYADSVKGRFTISRDNAKNTVYLQMNSLKPEDTEVYYCAAAYIRGSRRYDYCGQGTQVTVSS”, the “polyreactivity (PSR sort gate)” value is recorded as “high polyreactivity”.

Turning to “QVQLVESGGGLVQAGGSLRLSCAASGIIFGWYAMGWYRQAPGTERELVADISSDDSTYYADSVKGRFTISRDNAKNTVYLQMNSLKPEDTAVYDCAAETEYYSYRFDYWGQGTQVTVSS”, the “polyreactivity (PSR sort gate)” value is on record as “high polyreactivity”.

For “QVQLVESGGGLVQAGGSLRLSCAASGIIFGYNAMGWYRQAPGKERELVAAISYGGGRSYYADSVKGRFTISRDNAKNTVYFQMNSLKPEDTAVYYCAAQYFASRSYGYDYWGQGTQVTVSS”, the “polyreactivity (PSR sort gate)” value is reported as “high polyreactivity”.

For “QVQLVESGGGLVQAGGSLRLSCAASGIIFGYYAMGGYRQAPGKERELVAAISSRGSRTYYADSVKGRFTISRDNAKNTVYLQMNSLKPEDTAVYYCAARHFARMGYWGQGTQVTVSS”, the “polyreactivity (PSR sort gate)” value is “high polyreactivity”.

Regarding “QVQLVESGGGLVQAGGSLRLSCAASGIIFGYYAMGWYRQAPAKERELVAAISQSGGDTYYADSVKGRYTISRDLAKNTVYLQMNSVKPEDTAVYYCAASVWYYPMDYWGQGTHVTVSS”, the “polyreactivity (PSR sort gate)” value is recorded as “low polyreactivity”.

For “QVQLVESGGGLVQAGGSLRLSCAASGIIFGYYAMGWYRQAPGKERELVAAIDWTGGNTYYAVSVKGRFTISRDNAKNTVYLQMNSLKPEDTAVYYCAADYNSQEDYWGQGTQVTVSS”, the “polyreactivity (PSR sort gate)” value was “low polyreactivity”.

For “QVQLVESGGGLVQAGGSLRLSCAASGIIFGYYAMGWYRQAPGKERELVAAISGNGGSTYYADSVKGRFTLSRDNAKITVYLQMNSLKPEDTAVYYCAARRGYRYGPRYDYWGQGTQVTVSS”, the “polyreactivity (PSR sort gate)” value is “high polyreactivity”.

As for “QVQLVESGGGLVQAGGSLRLSCAASGIIFGYYAMGWYRQAPGKERELVASIIWSGGSTYYADSVKGRFTISRDNAKNTVYLQMNSLKPEDTAVYYCAAYRYQEYDYWGQGTQVTVSS”, the “polyreactivity (PSR sort gate)” value is listed as “high polyreactivity”.

As to “QVQLVESGGGLVQAGGSLRLSCAASGIIFHGNAMGWYRQAPGKERELVAAIRWSGGSTYYADSVKGRFTISRDNAKNSVYLPMNSLKPEDTAVYYCNAGRSWRRTHYDYWGQGTQVTVSS”, the “polyreactivity (PSR sort gate)” value is on record as “high polyreactivity”.

Regarding “QVQLVESGGGLVQAGGSLRLSCAASGIIFIGYAMGWYRQAAGKERELVAAITRSGVSTYYADSVKGRFTISRDNAKNTVYLQMNSLKPEDTAVYYCAARYFGEKYSQGFDYWGQGTQVTVSS”, the “polyreactivity (PSR sort gate)” value is listed as “low polyreactivity”.

Take “QVQLVESGGGLVQAGGSLRLSCAASGIIFIHYAMGWYRQAPGKERELVAAITSGGSTNYADSVKGRFTISRDNAKNTVYLQMNSLKPEDTAVYYCNAEPVASYYRVSDYEYWGQGTQVTVSS”: the “polyreactivity (PSR sort gate)” value is “low polyreactivity”.

In the case of “QVQLVESGGGLVQAGGSLRLSCAASGIIFIHYTMGWYRQAPGKERELVAAISWSGGSTYYADSVKGRFTISRDNAKNTVYLQMNSLKPEDTAVYYCAADYIFYHRMYYWGQGTQVTVSS”, the “polyreactivity (PSR sort gate)” value is reported as “high polyreactivity”.
